Source: patent publication US20250210128A1 (ECOLE POLYTECHNIQUE FEDERALE DE LAUSANNE EPFL, published 2025)
No end group written: not given here.

Legend:
Assay in all cases: cell-based or functional assay
[1] = biological target: Cdes2 CXCR4 design (human)
[2] = biological target: CLdes CXCR4 sensor (Cdes2 design combined with H113N) (human)
[3] = biological target: Ldes CXCR4 (library-selected combination receptor variant) (human)

- potency in G-coupling (Gi BRET) [1]: 3.2 fold over WT
- potency in calcium mobilization [1]: 3.1 fold over WT
- Gi response (potency/sensitivity) [2]: > 9 fold over WT
- Gi potency [3]: ~11 fold over CXCR4 WT scaffold
Binder: KPVSLSYRCPCRFFESH-NH2 (cysteine pairing not given here) [CXCL12 1-17 peptide, wild-type (17 N-terminal residues of CXCL12)]
